Residue numbers refer to the chain shown, from its start.
Tests used:
[1] = target: T1, human CD69 recombinant protein (extracellular region 62-199, homodimer) (human, UniProt Q07108 62-199); assay: Scatchard plot KD; reference 160-c76 IgG
T1 construct: Expressed in the E. coli periplasm from cDNA NM_001781; also called human CD69 homodimer protein; extracellular domain of human CD69
T1 sequence: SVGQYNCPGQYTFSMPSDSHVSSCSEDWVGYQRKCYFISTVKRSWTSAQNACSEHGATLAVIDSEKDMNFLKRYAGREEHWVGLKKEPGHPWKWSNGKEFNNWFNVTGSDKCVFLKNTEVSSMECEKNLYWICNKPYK
Protocol: (§1) The affinity of the prepared IgG clones for human CD69 was evaluated by scatchard plot. To be specific, it was calculated according to the principle described in Immunoassays (OXFORD UNIVERSITY PRESS, 2000). An antibody was incubated with various concentrations of antigen at room temperature for 2 hr until it reaches equilibrium, and the amount of free antibody present in the incubation liquids was measured by the ELISA method. The binding constant and dissociation constant (KD value) were determined based on the changes in the amount of free antibody in each equilibrate sample. The concentration of the antibody in the equilibration reaction was set to […], and an ELISA plate immobilized with the antigen at 1 μg/ml was used for the measurement of the amount of free antibody.

[2] = target: T1, human CD69 recombinant protein …; assay: Scatchard plot; solution equilibrium with antigen, free IgG measured by ELISA
Protocol: In the present specification, the KD value relating to the binding affinity of the antibody of the present invention to human CD69 is calculated according to the principle described in Immunoassays (OXFORD UNIVERSITY PRESS, 2000) using a scatchard plot method. An antibody is incubated with various concentrations of antigen (extracellular domain of human CD69) at room temperature for 2 hr until equilibrium, and the amount of free antibody present in the incubation solutions is measured by the ELISA method. The binding constant and dissociation constant (KD value) are determined based on the changes in the amount of free antibody in each equilibrated sample. The antibody concentration during equilibration reaction is to be 0.015 μg/ml, and an ELISA plate for the measurement of the amount of free antibody is to be immobilized with the antigen at 1 μg/ml.
as §1

[3] = target: T2, human CD69 partial peptide #26 (YAGREEHWVGLK) (human); assay: peptide array (PepSpots), HRP-labelled antibody
T2 construct: Immobilized on a PepSpots peptide array (JPT)
T2 peptide: YAGREEHWVGLK
Description: (§2) To be specific, as shown in the following Table, a peptide array consisting of peptides having the residue number of 12 amino acid residues and an offset of 3 amino acid residues was produced for a sequence covering the extracellular domain of human CD69 (60-199) (PepSpots, manufactured by JPT). The peptide array and the anti-human CD69 antibody were reacted according to the manual of JPT. Anti-human CD69 antibodies labeled with HRP (Peroxidase Labeling Kit-NH2, manufactured by Dojindo) were used.

[4] = target: T3, human CD69 partial peptide #25 (LKRYAGREEHWV) (human); assay: peptide array (PepSpots), HRP-labelled antibody
T3 construct: Immobilized on a PepSpots peptide array (JPT)
T3 peptide: LKRYAGREEHWV
Description: as §2

[5] = target: T4, human CD69 partial peptide #24 (MNFLKRYAGREE) (human); assay: peptide array (PepSpots), HRP-labelled antibody
T4 construct: Immobilized on a PepSpots peptide array (JPT)
T4 peptide: MNFLKRYAGREE
Description: as §2

B1: 234-61 IgG antibody (IgG4) (antibody, V domains shown)
VH: QVQPGGSLRLSCAASGFTFSNFVMHWVRQAPGKGLEWVSSISGSSSSTYYADSVKGRFTISRDNSKNTLYLQMNSLRAEDTAVYYCARYYYASFDYWGQGTLVTVSS
VL: DIELTQPPSVSVAPGQTARISCSGDSLGSKYVYWYQQKPGQAPVVVIYGDSKRPSGIPERFSGSNSGNTATLTISGTQAEDEADYYCQSYTSFTTKIVFGGGTKLTVLG
fold increase of affinity against 160-c76 [1]: 9 fold | Kd [2]: 1.13 nM

B2: 234-83 IgG antibody (IgG4) (antibody, V domains shown)
VH: B1 VH
VL: B1 VL with Q88G, S92T, F93G, T94A, T95K, K96S, I97H
notes: HRP-labelled in the peptide array
fold increase of affinity against 160-c76 [1]: ≥ 9 fold | Kd [2]: 2.83 nM

B3: 160-c7 IgG antibody (IgG4) (antibody, V domains shown)
VH: QVQLVQSGAEVKKPGASVKVSCKASGYTFTSYDMHWVRQAPGQGLEWMGWINPYSGNTNYAQKFQGRVTMTRDTSISTAYMELSSLRSEDTAVYYCARMYYDKDYLSWGTDSWGQGTLVTVSS
VL: DIQMTQSPSSLSASVGDRVTITCRASQDISSYLNWYQQKPGKAPKLLIYGASNLQSGVPSRFSGSGSGTDFTLTISSLQPEDFAVYYCQQYSDYPHTFGQGTKVEIKR
notes: Full IgG made in HEK293T; HRP-labelled in the peptide array
binding result [3]: binds | Kd [2]: 47.6 nM

B4: 160-c103 IgG antibody (IgG4) (antibody, V domains shown)
VH: QVQLVESGGGLVQPGGSLRLSCAASGFTFSNYYMSWVRQAPGKGLEWVSVISYDGISTHYADSVKGRFTISRDNSKNTLYLQMNSLRAEDTAVYYCARYIGNSLYMDFWGQGTLVTVSS
VL: DIVLTQSPATLSLSPGERATLSCRASQSVSSYLAWYQQKPGQAPRLLIYGTSIRATGVPARFSGSGSGTDFTLTISSLEPEDFATYYCQQEYSSPPTFGQGTKVEIKR
notes: as for B3
binding result [3]: binds | binding result [4]: binds | binding result [5]: binds | Kd [2]: 7.58 nM

B5: 160-c76 IgG antibody (IgG4) (antibody, V domains shown)
VH: B1 VH
VL: DIELTQPPSVSVAPGQTARISCSGDSLGSKYVYWYQQKPGQAPVVVIYGDSKRPSGIPERFSGSNSGNTATLTISGTQAEDEADYYCQSYDSNIMVFGGGTKLTVLG
notes: Full IgG made in HEK293T
Kd [2]: 27.8 nM
